# B1: mRNA-splicing (parent)
# chain: AGUUGCUGCUGGGAGCUCCAGCACAGUGAAAUGGACAGAAGGGCAGAGCAA
# Variants of: B1
# Experiment: exon inclusion enrichment index; higher = more inclusion; WT1 exon 5 minigene, HEK293
row,Variant,exon inclusion enrichment index
1,AGUUUAUCUCGGGAGCUCCAGCACAGUGAAAUGGACAGAAGGGCAGAGCAA [G5U C6A G8C C9U U10C],0.611
2,AGUUUGUCUCGGGAGCUCCAGCACAGUGAAAUGGACAGAAGGGCAGAGCAA [G5U C6G G8C C9U U10C],1.09
3,AGUUCCCGACGGGAGCUCCAGCACAGUGAAAUGGACAGAAGGGCAGAGCAA [G5C U7C C9A U10C],0.262
4,AGUUCUUCUGGGGAGCUCCAGCACAGUGAAAUGGACAGAAGGGCAGAGCAA [G5C C6U G8C C9U U10G],1.12
5,AGUUCUCUUCGGGAGCUCCAGCACAGUGAAAUGGACAGAAGGGCAGAGCAA [G5C C6U U7C G8U C9U U10C],1.35
6,AGUUUACGCCGGGAGCUCCAGCACAGUGAAAUGGACAGAAGGGCAGAGCAA [G5U C6A U7C U10C],3.2
7,AGUUCUGACAGGGAGCUCCAGCACAGUGAAAUGGACAGAAGGGCAGAGCAA [G5C C6U U7G G8A U10A],0.0911
8,AGUUCUUCUCGGGAGCUCCAGCACAGUGAAAGGGACAGAAGGGCAGAGCAA [G5C C6U G8C C9U U10C U32G],0.212
9,AGUUCUUCUCGGGAGCUCCAGCACAGUGAAACGGACAGAAGGGCAGAGCAA [G5C C6U G8C C9U U10C U32C],3.26
10,AGUUCUGGUCGGGAGCUCCAGCACAGUGAAAUGGACAGAAGGGCAGAGCAA [G5C C6U U7G C9U U10C],0.743
11,AGUUCUCCUCGGGAGCUCCAGCACAGUGAAAUGGACAGAAGGGCAGAGCAA [G5C C6U U7C G8C C9U U10C],1.73
12,AGUUUGUUUUGGGAGCUCCAGCACAGUGAAAUGGACAGAAGGGCAGAGCAA [G5U C6G G8U C9U],0.0807
13,AGUUCUUGCCGGGAGCUCCAGCACAGUGAAAUGGACAGAAGGGCAGAGCAA [G5C C6U U10C],1.82
14,AGUUUUCACCGGGAGCUCCAGCACAGUGAAAUGGACAGAAGGGCAGAGCAA [G5U C6U U7C G8A U10C],1.85
15,AGUUUUCACAGGGAGCUCCAGCACAGUGAAAUGGACAGAAGGGCAGAGCAA [G5U C6U U7C G8A U10A],0.0434
16,AGUUUCUGCUGGGAGCUCCAGCACAGUGAAAUGGACAGAAGGGCAGAGCAA [G5U],0.103
17,AGUUCUCGCCGGGAGCUCCAGCACAGUGAAAUGGACAGAAGGGCAGAGCAA [G5C C6U U7C U10C],3.59
18,AGUUUUGGAUGGGAGCUCCAGCACAGUGAAAUGGACAGAAGGGCAGAGCAA [G5U C6U U7G C9A],0.469
19,AGUUCCUACAGGGAGCUCCAGCACAGUGAAAUGGACAGAAGGGCAGAGCAA [G5C G8A U10A],0.0176
20,AGUUCUAACAGGGAGCUCCAGCACAGUGAAAUGGACAGAAGGGCAGAGCAA [G5C C6U U7A G8A U10A],0.064
21,AGUUCUUUGCGGGAGCUCCAGCACAGUGAAAUGGACAGAAGGGCAGAGCAA [G5C C6U G8U C9G U10C],0.68
22,AGUUCCGCUCGGGAGCUCCAGCACAGUGAAAUGGACAGAAGGGCAGAGCAA [G5C U7G G8C C9U U10C],0.323
23,AGUUUUUUUUGGGAGCUCCAGCACAGUGAAAUGGACAGAAGGGCAGAGCAA [G5U C6U G8U C9U],0.0204
24,AGUUCCAUAUGGGAGCUCCAGCACAGUGAAAUGGACAGAAGGGCAGAGCAA [G5C U7A G8U C9A],0.077
25,AGUUUUCUUUGGGAGCUCCAGCACAGUGAAAUGGACAGAAGGGCAGAGCAA [G5U C6U U7C G8U C9U],0.154
26,AGUUCCAGCCGGGAGCUCCAGCACAGUGAAAUGGACAGAAGGGCAGAGCAA [G5C U7A U10C],1.62

row,Variant,exon inclusion enrichment index
1,AGUUUUUGCUGGGAGCUCCAGCACAGUGAAAUGGACAGAAGGGCAGAGCAA [G5U C6U],0.0058
2,AGUUUGUGCUGGGAGCUCCAGCACAGUGAAAUGGACAGAAGGGCAGAGCAA [G5U C6G],0.00229
3,AGUUUAUGCUGGGAGCUCCAGCACAGUGAAAUGGACAGAAGGGCAGAGCAA [G5U C6A],0.00655
4,AGUUUUGUUUGGGAGCUCCAGCACAGUGAAAUGGACAGAAGGGCAGAGCAA [G5U C6U U7G G8U C9U],0.119
5,AGUUUGAUAUGGGAGCUCCAGCACAGUGAAAUGGACAGAAGGGCAGAGCAA [G5U C6G U7A G8U C9A],0.241
6,AGUUUGAUUUGGGAGCUCCAGCACAGUGAAAUGGACAGAAGGGCAGAGCAA [G5U C6G U7A G8U C9U],0.198
7,AGUUUUCGCCGGGAGCUCCAGCACAGUGAAAUGGACAGAAGGGCAGAGCAA [G5U C6U U7C U10C],3.03
8,AGUUCCCGCCGGGAGCUCCAGCACAGUGAAAUGGACAGAAGGGCAGAGCAA [G5C U7C U10C],0.696
9,AGUUUGCGCCGGGAGCUCCAGCACAGUGAAAUGGACAGAAGGGCAGAGCAA [G5U C6G U7C U10C],2.34
10,AGUUCUAUUCGGGAGCUCCAGCACAGUGAAAUGGACAGAAGGGCAGAGCAA [G5C C6U U7A G8U C9U U10C],0.663
11,AGUUCUUCUGAGGAGCUCCAGCACAGUGAAAUGGACAGAAGGGCAGAGCAA [G5C C6U G8C C9U U10G G11A],2
12,AGUUCUUCUGCGGAGCUCCAGCACAGUGAAAUGGACAGAAGGGCAGAGCAA [G5C C6U G8C C9U U10G G11C],2.13
13,AGUUCUUCUGUGGAGCUCCAGCACAGUGAAAUGGACAGAAGGGCAGAGCAA [G5C C6U G8C C9U U10G G11U],1.56
14,AGUUCUGGAUGGGAGCUCCAGCACAGUGAAAUGGACAGAAGGGCAGAGCAA [G5C C6U U7G C9A],1.42
15,AGUUCUACUCGGGAGCUCCAGCACAGUGAAAUGGACAGAAGGGCAGAGCAA [G5C C6U U7A G8C C9U U10C],1.66
16,AGUUUGGUUUGGGAGCUCCAGCACAGUGAAAUGGACAGAAGGGCAGAGCAA [G5U C6G U7G G8U C9U],0.0864
17,AGUUCUUCUCGGGAGCUCCAGCACAGUGAAACCGACAGAAGGGCAGAGCAA [G5C C6U G8C C9U U10C U32C G33C],2.66
18,AGUUCUUCUCGGGAGCUCCAGCACAGUGAAACUGACAGAAGGGCAGAGCAA [G5C C6U G8C C9U U10C U32C G33U],1.28
19,AGUUCUUCUCGGGAGCUCCAGCACAGUGAAACAGACAGAAGGGCAGAGCAA [G5C C6U G8C C9U U10C U32C G33A],0.84
20,AGUUUAGGAUGGGAGCUCCAGCACAGUGAAAUGGACAGAAGGGCAGAGCAA [G5U C6A U7G C9A],0.0473
21,AGUUCCUUUUGGGAGCUCCAGCACAGUGAAAUGGACAGAAGGGCAGAGCAA [G5C G8U C9U],0.0356
22,AGUUCCAACAGGGAGCUCCAGCACAGUGAAAUGGACAGAAGGGCAGAGCAA [G5C U7A G8A U10A],0.0423
23,AGUUCUCGUCGGGAGCUCCAGCACAGUGAAAUGGACAGAAGGGCAGAGCAA [G5C C6U U7C C9U U10C],3.09
24,AGUUCUUUCCGGGAGCUCCAGCACAGUGAAAUGGACAGAAGGGCAGAGCAA [G5C C6U G8U U10C],1.11
25,AGUUUUAGAAGGGAGCUCCAGCACAGUGAAAUGGACAGAAGGGCAGAGCAA [G5U C6U U7A C9A U10A],0.0191

# From the RNAGym collection of RNA variant scans (doi:10.1101/gr.219683.116)
